This note sets out measurements from patent EP4644418A1 (Hebei Senlang Biotechnology Co. Ltd., dated 2025).

By EC50 is commonly meant the concentration at which the effect is half-maximal. Higher therefore signals a less potent agent. As a reminder, the Kd is the equilibrium constant for the complex coming apart. A high value points to a looser complex. By koff is commonly meant the first-order rate constant of dissociation. High values mean a short-lived complex, low ones a long-lived complex. The kon is a measure of how fast the partners come together. A lower kon goes with slower complex formation.

Assay [1] has as its target T1, BCMA-His protein (extracellular region of human BCMA, His-tagged) (human, UniProt Q02223 1-54).
T1 construct: extracellular domain; Made in house and purified on a Ni column; also called human BCMA antigen; recombinant BCMA-His protein; not shown: His tag
T1 sequence (looked up): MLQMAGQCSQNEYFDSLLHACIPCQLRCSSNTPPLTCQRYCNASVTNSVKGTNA
The experiment in a line: flow cytometry (MFI) of transduced K562 cells stained with BCMA-His and an anti-His tag antibody. (In general: A flow cytometer gives signals particle by particle.)

Assay [2] deals with T1, BCMA-His protein (extracellular region …). As to the kind of experiment: monoclonal phage ELISA on coated BCMA protein, HA-HRP detection. In general terms: In an ELISA, binding on a coated surface is turned into a signal by an enzyme label.
For assay [3] the target is unchanged. The experiment in a line: ELISA, BCMA-His coated, anti-human IgG1 Fc-HRP detection.
Assay [4] shares this target. The experiment in a line: SPR (Biacore 8K), BCMA-His captured on NTA chip, nanobody-Fc as analyte, 1:1 binding fit.
The target is the same in assay [5]. The experiment in a line: flow cytometry of CAR-T cells stained with BCMA-His and an anti-His tag antibody.

B1: dNMC003-B (dual VHH CAR, VHH01-(G4S)5-VHH02, on K562 or CAR-T cells) (other)
chain: QVQLQESGGGSVQPGGSLRLSCKASGFTFSPSAMSWARQAPGKEIEWVSNIYPDGRTYYADSMKGRFTISRDNAENTVYLQMNSLKPEDTAVYYCLIGVGIVAGQVVSPYWGQGTQVTVSSGGGGSGGGGSGGGGSGGGGSGGGGSQVQLQESGGGLVQPGGSLRLSCAASGFTFSNYAMSWFRQGPGKERELVAGIDRTGGSTRTADSVQGRFTISRDNAKNKVYLQMNSLKPEDTAVYYCKALRTPGWGTSPDVVGYWGQGTQVTVSSTTPAPRPPTPAPTIASQPLSLRPEACRPAAGGAVHTRGLDFACDIYIWAPLAGTCGVLLLSLVITLYCKRGRKKLLYIFKQPFMRPVQTTQEEDGCSCRFPEEEEGGCELRVKFSRSADAPAYKQGQNQLYNELNLGRREEYDVLDKRRGRDPEMGGKPRRKNPQEGLYNELQKDKMAEAYSEIGMKGERRRGKGHDGLYQGLSTATKDTYDALHMQALPPR
notes: T2A-tEGFR follows in the construct and is split off at T2A; also called K562-dNMC003-B; dNMC003-B CAR-T
In the case of B1, the binding result in assay [1] is listed as “binds”.

B2: Nb003-01 (VHH01), monoclonal phage clone (VHH)
VHH: QVQLQESGGGSVQPGGSLRLSCKASGFTFSPSAMSWARQAPGKEIEWVSNIYPDGRTYYADSMKGRFTISRDNAENTVYLQMNSLKPEDTAVYYCLIGVGIVAGQVVSPYWGQGTQVTVSS
On to B2, for which the binding result in assay [2] is on record as “binds”.

B3: Nb003-01-Fc (Fc fusion)
chain: QVQLQESGGGSVQPGGSLRLSCKASGFTFSPSAMSWARQAPGKEIEWVSNIYPDGRTYYADSMKGRFTISRDNAENTVYLQMNSLKPEDTAVYYCLIGVGIVAGQVVSPYWGQGTQVTVSS
modifications: biotinylated for the flow cytometry assay only (sites not given)
notes: also called VHH01; not shown: N-terminal SUMO tag from plasmid pET-28a-Sumo-Nb-Fc; human IgG1 Fc tag at the C-terminus
With B3, in assay [3], the half-maximal effective concentration (EC50) was 2.05 nM. In assay [4], this molecule gave a dissociation constant Kd of 62 nM, a dissociation rate constant (koff) of 0.000857 s⁻¹ and an on-rate constant (kon) of 13800 M⁻¹ s⁻¹.

B4: NMC003-01 (single VHH CAR with VHH01, on CAR-T cells) (other)
chain: QVQLQESGGGSVQPGGSLRLSCKASGFTFSPSAMSWARQAPGKEIEWVSNIYPDGRTYYADSMKGRFTISRDNAENTVYLQMNSLKPEDTAVYYCLIGVGIVAGQVVSPYWGQGTQVTVSSTTPAPRPPTPAPTIASQPLSLRPEACRPAAGGAVHTRGLDFACDIYIWAPLAGTCGVLLLSLVITLYCKRGRKKLLYIFKQPFMRPVQTTQEEDGCSCRFPEEEEGGCELRVKFSRSADAPAYKQGQNQLYNELNLGRREEYDVLDKRRGRDPEMGGKPRRKNPQEGLYNELQKDKMAEAYSEIGMKGERRRGKGHDGLYQGLSTATKDTYDALHMQALPPR
notes: also called NMC003-01 CAR-T
For the molecule B4, the binding result in assay [5] is on record as “binds”.

B5: dNb003-B-Fc (Fc fusion)
chain: QVQLQESGGGSVQPGGSLRLSCKASGFTFSPSAMSWARQAPGKEIEWVSNIYPDGRTYYADSMKGRFTISRDNAENTVYLQMNSLKPEDTAVYYCLIGVGIVAGQVVSPYWGQGTQVTVSSGGGGSGGGGSGGGGSGGGGSGGGGSQVQLQESGGGLVQPGGSLRLSCAASGFTFSNYAMSWFRQGPGKERELVAGIDRTGGSTRTADSVQGRFTISRDNAKNKVYLQMNSLKPEDTAVYYCKALRTPGWGTSPDVVGYWGQGTQVTVSS
modifications: biotinylated for the flow cytometry assay only (sites not given)
notes: not shown: N-terminal SUMO tag from plasmid pET-28a-Sumo-Nb-Fc; human IgG1 Fc tag at the C-terminus
B5: the 50% effective concentration (EC50) in assay [3] came to 0.346 nM. In assay [4], this molecule gave a Kd of 1.94 nM, a dissociation rate constant (koff) of 0.00245 s⁻¹ and an on-rate (kon) of 1.27e+06 M⁻¹ s⁻¹.

B6: dNMC003-A (dual VHH CAR, VHH02-(G4S)5-VHH02, on K562 or CAR-T cells) (other)
chain: QVQLQESGGGLVQPGGSLRLSCAASGFTFSNYAMSWFRQGPGKERELVAGIDRTGGSTRTADSVQGRFTISRDNAKNKVYLQMNSLKPEDTAVYYCKALRTPGWGTSPDVVGYWGQGTQVTVSSGGGGSGGGGSGGGGSGGGGSGGGGSQVQLQESGGGLVQPGGSLRLSCAASGFTFSNYAMSWFRQGPGKERELVAGIDRTGGSTRTADSVQGRFTISRDNAKNKVYLQMNSLKPEDTAVYYCKALRTPGWGTSPDVVGYWGQGTQVTVSSTTPAPRPPTPAPTIASQPLSLRPEACRPAAGGAVHTRGLDFACDIYIWAPLAGTCGVLLLSLVITLYCKRGRKKLLYIFKQPFMRPVQTTQEEDGCSCRFPEEEEGGCELRVKFSRSADAPAYKQGQNQLYNELNLGRREEYDVLDKRRGRDPEMGGKPRRKNPQEGLYNELQKDKMAEAYSEIGMKGERRRGKGHDGLYQGLSTATKDTYDALHMQALPPR
notes: T2A-tEGFR follows in the construct and is split off at T2A; also called K562-dNMC003-A; dNMC003-A CAR-T
On to B6, for which the binding result in assay [1] is given as “binds”.

B7: Nb003-02-Fc (Fc fusion)
chain: QVQLQESGGGLVQPGGSLRLSCAASGFTFSNYAMSWFRQGPGKERELVAGIDRTGGSTRTADSVQGRFTISRDNAKNKVYLQMNSLKPEDTAVYYCKALRTPGWGTSPDVVGYWGQGTQVTVSS
modifications: biotinylated for the flow cytometry assay only (sites not given)
notes: also called VHH02; not shown: N-terminal SUMO tag from plasmid pET-28a-Sumo-Nb-Fc; human IgG1 Fc tag at the C-terminus
B7 had an EC50 in assay [3] of 0.652 nM. In assay [4], this molecule yielded a Kd of 1.79 nM, a koff of 0.00212 s⁻¹ and a kon of 1.19e+06 M⁻¹ s⁻¹.

B8: Nb003-02 (VHH02), monoclonal phage clone (VHH)
VHH: QVQLQESGGGLVQPGGSLRLSCAASGFTFSNYAMSWFRQGPGKERELVAGIDRTGGSTRTADSVQGRFTISRDNAKNKVYLQMNSLKPEDTAVYYCKALRTPGWGTSPDVVGYWGQGTQVTVSS
On to B8, for which the binding result in assay [2] is on record as “binds”.
